This note sets out measurements from patent US20220236279A1.

The target of assay [1] is human atypical chemokine receptor 3 (ACKR3) (human) (UniProt P25106). The experiment in a line: cell-based or functional assay.
Assay [2] shares this target. The experiment in a line: binding competition with CXCL12-AF647, flow cytometry. On the technique in general: In flow cytometry, cells or beads pass a laser one at a time.

human atypical chemokine receptor 3 (ACKR3) (human), sequence (P25106 whole entry): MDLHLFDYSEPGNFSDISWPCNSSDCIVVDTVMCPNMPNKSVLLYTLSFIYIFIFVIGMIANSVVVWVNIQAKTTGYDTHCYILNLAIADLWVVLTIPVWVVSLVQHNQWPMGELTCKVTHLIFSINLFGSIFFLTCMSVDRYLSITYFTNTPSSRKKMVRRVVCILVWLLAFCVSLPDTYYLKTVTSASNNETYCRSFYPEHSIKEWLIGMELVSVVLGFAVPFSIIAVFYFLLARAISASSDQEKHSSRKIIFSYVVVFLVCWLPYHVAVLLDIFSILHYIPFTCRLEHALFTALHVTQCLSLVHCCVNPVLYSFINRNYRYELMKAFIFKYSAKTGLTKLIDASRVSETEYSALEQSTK

“CXCL11 (C-X-C motif chemokine 11) (from UniProt O14625 22-94) (ligand)” displayed an EC50, β-arrestin recruitment (NanoBiT) in assay [1] of 2.2 nM. One may read the IC50 as the point on the concentration scale where inhibition reaches its midpoint. Lower therefore signals greater potency. In assay [2], nociceptin 1-13 amide showed an IC50 greater than 10000 nM.
